Changes are numbered by the printed parent chain. No end group written: not given here.
How the values were obtained:
[1] = target: mKate2-Kv1.3 M1-D52 truncated (Homo sapiens, UniProt P22001); experiment: competition with AgTx2-GFP, confocal, Neuro 2A cells
[2] = target: KcsA-Kv1.1 pore blocker binding site (Homo sapiens, UniProt Q09470); experiment: competition with AgTx2-GFP, confocal, spheroplasts
[3] = target: KcsA-Kv1.6 pore blocker binding site (Homo sapiens, UniProt P17658); experiment: competition with AgTx2-GFP, confocal, spheroplasts
KcsA-Kv1.6 pore blocker binding site, sequence (P17658 398-431): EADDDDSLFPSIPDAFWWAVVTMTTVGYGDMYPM

[4] = target: KcsA-Kv1.3 pore blocker binding site (Homo sapiens, UniProt P22001); experiment: competition with AgTx2-GFP, confocal, spheroplasts
KcsA-Kv1.3 pore blocker binding site, sequence (P22001 420-453): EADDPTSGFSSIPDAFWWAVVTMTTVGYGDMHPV

KcsA-Kv1.1 pore blocker binding site, sequence (Q09470 348-381): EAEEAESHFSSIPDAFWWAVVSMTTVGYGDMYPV
mKate2-Kv1.3 M1-D52 truncated, sequence (P22001 53-575): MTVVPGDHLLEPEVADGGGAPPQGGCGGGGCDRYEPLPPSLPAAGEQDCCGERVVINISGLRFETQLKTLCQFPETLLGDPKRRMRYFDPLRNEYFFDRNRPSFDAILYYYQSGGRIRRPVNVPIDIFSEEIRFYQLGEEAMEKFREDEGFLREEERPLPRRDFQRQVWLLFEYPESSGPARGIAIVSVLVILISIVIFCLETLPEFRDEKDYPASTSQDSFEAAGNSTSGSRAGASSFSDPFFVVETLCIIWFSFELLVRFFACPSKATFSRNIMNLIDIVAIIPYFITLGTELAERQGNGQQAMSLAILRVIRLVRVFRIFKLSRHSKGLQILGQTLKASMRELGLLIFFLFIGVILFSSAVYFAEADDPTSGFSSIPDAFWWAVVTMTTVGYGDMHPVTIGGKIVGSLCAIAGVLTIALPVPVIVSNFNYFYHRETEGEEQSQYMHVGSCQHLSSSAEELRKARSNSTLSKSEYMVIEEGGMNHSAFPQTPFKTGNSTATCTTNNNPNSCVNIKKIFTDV

B1: AgTx2 (peptide)
chain: GVPINVSCTGSPQCIKPCKDAGMRFGKCMNRKCHCTPK
modifications: ends and bridges not checked; cysteine pairing not given here
[1]
  Ki: 0.7 nM

B2: KTx1 (peptide)
chain: B1 chain with P3E, S7K, T9S, I15L
modifications: ends and bridges not checked; cysteine pairing not given here
[2]
  Ki: 3.8 nM

B3: KTx1 (peptide)
chain: B1 chain with P3E, S7K, T9S, I15L
modifications: ends and bridges not checked; cysteine pairing not given here
[3]
  Ki: 0.016 nM

B4: AgTx2 (peptide)
chain: B1 chain
modifications: ends and bridges not checked; cysteine pairing not given here
[2]
  Ki: 3.7 nM

B5: AgTx2 (peptide)
chain: B1 chain
modifications: ends and bridges not checked; cysteine pairing not given here
[3]
  Ki: 0.027 nM

B6: KTx1 (peptide)
chain: B1 chain with P3E, S7K, T9S, I15L
modifications: ends and bridges not checked; cysteine pairing not given here
[4]
  Ki: 0.032 nM

B7: AgTx2 (peptide)
chain: B1 chain
modifications: ends and bridges not checked; cysteine pairing not given here
[4]
  Ki: 0.039 nM
